Key:
[1] = target: Alexa Fluor 488 conjugated rabbit anti-mouse antibody (Invitrogen; A-11059); experiment: flow cytometry, 2 µg Alexa Fluor 488 rabbit anti-mouse antibody on Sdlba3b-expressing L. lactis cells; control cells (pNZ8148) 2.26
M13/HRP antibody = experiment: depletion of M13/HRP antibody (0.45-9.0 µg/mL) from the supernatant by pSDLBA3b cells, TMB read-out, Langmuir linear regression
[2] = target: Alexa Fluor 488 conjugated rabbit anti-mouse antibody (Invitrogen; A-11059); experiment: flow cytometry with Alexa Fluor 488 rabbit anti-mouse antibody after 30 min in simulated gastric juice (pepsin, pH 2.0 or 4.0), against incubation at pH 7.0

“Sdlba3b fusion protein (encoded by pSDLBA3b), immunoglobulin-binding B domain displayed on the surface of L. lactis (from UniProt P38507 212-269)” showed a mean fluorescence intensity [1] of 151, a maximum amount of adsorbed antibody (µg per 1×10^8 cells) (M13/HRP antibody) of 0.146 and a loss of fluorescence intensity [2] of under 14%.
